Measurements from patent US20230227512A1.

Legend:
[1] = biological target: BG505 SOSIP.664 trimer+sCD4 complex (HIV-1 strain BG505; human) (UniProt P01730); experiment: SPR read-out on captured 3074 IgG of trimer incubated with sCD4
[2] = biological target: BG505.SOSIP.664.201C-433C HIV-1 Env ectodomain trimer (HIV-1 strain BG505); experiment: SPR, single-cycle kinetics

| Substance | t1/2 of CD4-induced appearance of binding [1] [h] | fold faster off-rate relative to parent SOSIP.664 [2] [fold] | fold reduction in KD (affinity) relative to SOSIP.664 [2] [fold] |
| --- | --- | --- | --- |
| 3074 antibody | 4.2 |  |  |
| soluble CD4 (sCD4) (from UniProt P01730 26-208) (receptor) |  | 10 | 10 |
